Measurements: the supplement of paper PMC9112550, “Optimization of the antimicrobial peptide Bac7 by deep mutational scanning” (BMC Biology, 2022)

system: Escherichia coli TOP10; test: shrunken log2 fold change of peptide-encoding DNA abundance (4.5 h post-induction vs induction); higher = less antimicrobial activity (less host growth inhibition); conditions: time post-induction: 4.5 h; library: site-saturation at positions 5, 18, 19, 20
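Note: peptides expressed intracellularly from a pBAD plasmid library in pooled LB shake-flask culture, induced with 0.3% L-arabinose, DNA abundance read by NGS, three biological replicates, DESeq2 with apeglm shrinkage.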

| Sequence | shrunken log2 fold change |
| --- | --- |
| RRIRLRPPRLPRPRPRPWMHPRP | 0.0873 |
| RRIRMRPPRLPRPRPRPNVFPRP | 0.136 |
| RRIRKRPPRLPRPRPRPDASPRP | 0.187 |
| RRIRDRPPRLPRPRPRPMLDPRP | -0.0254 |
| RRIRYRPPRLPRPRPRPPCPPRP | -0.141 |
| RRIRGRPPRLPRPRPRPSSRPRP | 0.372 |
| RRIRNRPPRLPRPRPRPMWGPRP | -0.018 |
| RRIRYRPPRLPRPRPRPLETPRP | -0.0196 |
| RRIRARPPRLPRPRPRPHARPRP | 0.156 |
| RRIRWRPPRLPRPRPRPCNQPRP | -0.78 |
| RRIRGRPPRLPRPRPRPWEAPRP | -0.0319 |
| RRIRTRPPRLPRPRPRPANWPRP | 0.0703 |
| RRIRHRPPRLPRPRPRPAAGPRP | 0.323 |
| RRIRKRPPRLPRPRPRPLYQPRP | -0.187 |
| RRIRCRPPRLPRPRPRPQADPRP | 0.0688 |
| RRIRSRPPRLPRPRPRPSAEPRP | 0.567 |
| RRIRIRPPRLPRPRPRPVDFPRP | -0.133 |
| RRIRYRPPRLPRPRPRPSVKPRP | -0.119 |
| RRIRDRPPRLPRPRPRPHMNPRP | 0.001 |
| RRIRCRPPRLPRPRPRPKCNPRP | -0.201 |
| RRIRHRPPRLPRPRPRPAMPPRP | -0.0758 |
| RRIRIRPPRLPRPRPRPDHPPRP | -0.266 |
| RRIRKRPPRLPRPRPRPWSAPRP | 0.0935 |
| RRIRDRPPRLPRPRPRPLQGPRP | 0.287 |
| RRIRVRPPRLPRPRPRPMHQPRP | 0.02 |

| Sequence | shrunken log2 fold change |
| --- | --- |
| RRIRKRPPRLPRPRPRPCVPPRP | -0.14 |
| RRIRHRPPRLPRPRPRPHYFPRP | 0.00508 |
| RRIRQRPPRLPRPRPRPLMCPRP | -0.0972 |
| RRIRCRPPRLPRPRPRPADWPRP | 0.29 |
| RRIRIRPPRLPRPRPRPMHAPRP | 0.325 |
| RRIRFRPPRLPRPRPRPHQAPRP | -0.0233 |
| RRIRMRPPRLPRPRPRPLQTPRP | 3.06 |
| RRIRQRPPRLPRPRPRPQDNPRP | -0.304 |
| RRIRARPPRLPRPRPRPCIDPRP | 0.306 |
| RRIRPRPPRLPRPRPRPRSWPRP | 0.533 |
| RRIRSRPPRLPRPRPRPLYEPRP | -0.438 |
| RRIRWRPPRLPRPRPRPNKYPRP | -0.481 |
| RRIRGRPPRLPRPRPRPGTQPRP | 0.143 |
| RRIRCRPPRLPRPRPRPLFLPRP | -0.601 |
| RRIRPRPPRLPRPRPRPHARPRP | 0.111 |
| RRIRQRPPRLPRPRPRPSKHPRP | -0.641 |
| RRIRWRPPRLPRPRPRPKNWPRP | 0.188 |
| RRIRIRPPRLPRPRPRPVGHPRP | -0.0495 |
| RRIRSRPPRLPRPRPRPTYFPRP | -0.563 |
| RRIRFRPPRLPRPRPRPYRSPRP | -0.975 |
| RRIRPRPPRLPRPRPRPETTPRP | -0.0108 |
| RRIRWRPPRLPRPRPRPHWIPRP | -0.434 |
| RRIRARPPRLPRPRPRPIVAPRP | 0.371 |
| RRIRMRPPRLPRPRPRPGNRPRP | 0.0934 |
| RRIRIRPPRLPRPRPRPSAQPRP | -0.0807 |

| Sequence | shrunken log2 fold change |
| --- | --- |
| RRIRLRPPRLPRPRPRPHVDPRP | 0.0142 |
| RRIRHRPPRLPRPRPRPITPPRP | -0.538 |
| RRIRSRPPRLPRPRPRPLQMPRP | 0.24 |
| RRIRRRPPRLPRPRPRPNLRPRP | 0.00766 |
| RRIRVRPPRLPRPRPRPHNQPRP | -0.471 |
| RRIRKRPPRLPRPRPRPLPCPRP | 0.213 |
| RRIRTRPPRLPRPRPRPCGEPRP | -0.23 |
| RRIRDRPPRLPRPRPRPQWGPRP | -0.0612 |
| RRIRNRPPRLPRPRPRPHTSPRP | -0.268 |
| RRIRRRPPRLPRPRPRPPMTPRP | 0.43 |
| RRIRERPPRLPRPRPRPTHQPRP | -0.135 |
| RRIRYRPPRLPRPRPRPPMCPRP | -0.0507 |
| RRIRQRPPRLPRPRPRPCSSPRP | -0.0115 |
| RRIRERPPRLPRPRPRPIWPPRP | 0.0406 |
| RRIRGRPPRLPRPRPRPRQHPRP | 0.305 |
| RRIRDRPPRLPRPRPRPQYLPRP | -0.248 |
| RRIRSRPPRLPRPRPRPCSSPRP | -0.134 |
| RRIRYRPPRLPRPRPRPARLPRP | -0.0429 |
| RRIRTRPPRLPRPRPRPDTKPRP | -0.212 |
| RRIRFRPPRLPRPRPRPFNVPRP | -0.0431 |
| RRIRNRPPRLPRPRPRPECRPRP | 0.263 |
| RRIRWRPPRLPRPRPRPTHIPRP | -0.067 |
| RRIRIRPPRLPRPRPRPINMPRP | -0.956 |
| RRIRGRPPRLPRPRPRPGHNPRP | 0.0636 |
| RRIRERPPRLPRPRPRPFERPRP | 0.00782 |

| Sequence | shrunken log2 fold change |
| --- | --- |
| RRIRLRPPRLPRPRPRPKNIPRP | -0.499 |
| RRIRTRPPRLPRPRPRPSGAPRP | 0.251 |
| RRIRGRPPRLPRPRPRPHFYPRP | 0.324 |
| RRIRPRPPRLPRPRPRPRWEPRP | 0.444 |
| RRIRYRPPRLPRPRPRPTIQPRP | -1.09 |
| RRIRNRPPRLPRPRPRPFYLPRP | -0.0716 |
| RRIRFRPPRLPRPRPRPVIGPRP | -0.234 |
| RRIRHRPPRLPRPRPRPAYDPRP | -0.265 |
| RRIRLRPPRLPRPRPRPPLIPRP | -0.258 |
| RRIRGRPPRLPRPRPRPQEGPRP | 0.0358 |
| RRIRPRPPRLPRPRPRPTTGPRP | 0.12 |
| RRIRDRPPRLPRPRPRPDYPPRP | 0.00388 |
| RRIRRRPPRLPRPRPRPSPVPRP | 0.379 |
| RRIRMRPPRLPRPRPRPSSGPRP | 0.0493 |
| RRIRPRPPRLPRPRPRPSECPRP | -0.651 |
| RRIRFRPPRLPRPRPRPTMEPRP | -0.266 |
| RRIRARPPRLPRPRPRPSHNPRP | -0.245 |
| RRIRWRPPRLPRPRPRPGWDPRP | 0.657 |
| RRIRFRPPRLPRPRPRPQTKPRP | -0.142 |
| RRIRMRPPRLPRPRPRPCNMPRP | -0.126 |
| RRIRARPPRLPRPRPRPHEHPRP | 0.0352 |
| RRIRCRPPRLPRPRPRPEKMPRP | 0.0239 |
| RRIRRRPPRLPRPRPRPGIEPRP | -0.0777 |
| RRIRSRPPRLPRPRPRPHHSPRP | -0.464 |
| RRIRVRPPRLPRPRPRPFGTPRP | -0.0129 |

| Sequence | shrunken log2 fold change |
| --- | --- |
| RRIRARPPRLPRPRPRPLKYPRP | -0.11 |
| RRIRVRPPRLPRPRPRPEGAPRP | 0.451 |
| RRIRRRPPRLPRPRPRPTYIPRP | -0.12 |
| RRIRIRPPRLPRPRPRPMHNPRP | -0.332 |
| RRIRERPPRLPRPRPRPRCVPRP | 0.0448 |
| RRIRDRPPRLPRPRPRPMHDPRP | 0.122 |
| RRIRVRPPRLPRPRPRPASGPRP | -0.188 |
| RRIRFRPPRLPRPRPRPASWPRP | 0.026 |
| RRIRIRPPRLPRPRPRPQNWPRP | -0.517 |
| RRIRRRPPRLPRPRPRPSYIPRP | -0.416 |
| RRIRNRPPRLPRPRPRPCSQPRP | -0.0135 |
| RRIRPRPPRLPRPRPRPQYKPRP | -0.129 |
| RRIRLRPPRLPRPRPRPYTDPRP | -0.348 |
| RRIRLRPPRLPRPRPRPDSHPRP | -0.46 |
| RRIRSRPPRLPRPRPRPLHCPRP | 0.0547 |
| RRIRMRPPRLPRPRPRPKDMPRP | 0.0907 |
| RRIRTRPPRLPRPRPRPLSTPRP | -0.386 |
| RRIRARPPRLPRPRPRPHKPPRP | 0.148 |
| RRIRYRPPRLPRPRPRPTASPRP | -0.389 |
| RRIRARPPRLPRPRPRPHNMPRP | -0.446 |
| RRIRHRPPRLPRPRPRPSKPPRP | 0.00696 |
| RRIRWRPPRLPRPRPRPVRWPRP | 0.874 |
| RRIRPRPPRLPRPRPRPSEEPRP | 0.591 |
| RRIRIRPPRLPRPRPRPSLNPRP | -0.595 |
| RRIRNRPPRLPRPRPRPGWDPRP | -0.00506 |

| Sequence | shrunken log2 fold change |
| --- | --- |
| RRIRYRPPRLPRPRPRPRNCPRP | -0.234 |
| RRIRSRPPRLPRPRPRPFMNPRP | -0.147 |
| RRIRMRPPRLPRPRPRPMDPPRP | 0.038 |
| RRIRKRPPRLPRPRPRPEGSPRP | 0.102 |
| RRIRQRPPRLPRPRPRPTYGPRP | -0.293 |
| RRIRHRPPRLPRPRPRPVKDPRP | -0.549 |
| RRIRTRPPRLPRPRPRPRCKPRP | 0.0432 |
| RRIRVRPPRLPRPRPRPHFNPRP | -0.705 |
| RRIRKRPPRLPRPRPRPQTDPRP | -0.00442 |
| RRIRQRPPRLPRPRPRPTHKPRP | 0.0649 |
| RRIRQRPPRLPRPRPRPQIGPRP | -0.0384 |
| RRIRDRPPRLPRPRPRPHDAPRP | 0.0126 |
| RRIRWRPPRLPRPRPRPTDDPRP | -0.0402 |
| RRIRGRPPRLPRPRPRPVYTPRP | 0.00198 |
| RRIRLRPPRLPRPRPRPRQPPRP | 0.111 |
| RRIRNRPPRLPRPRPRPRKQPRP | 0.215 |
| RRIRSRPPRLPRPRPRPERYPRP | -0.037 |
| RRIRYRPPRLPRPRPRPWWEPRP | -0.0644 |
| RRIRERPPRLPRPRPRPLERPRP | -0.191 |
| RRIRIRPPRLPRPRPRPLIVPRP | -0.622 |
| RRIRCRPPRLPRPRPRPFCTPRP | -0.401 |
| RRIRGRPPRLPRPRPRPQPIPRP | 0.114 |
| RRIRMRPPRLPRPRPRPTHTPRP | 1.03 |
| RRIRNRPPRLPRPRPRPICIPRP | -0.531 |
| RRIRHRPPRLPRPRPRPVCHPRP | -0.198 |
